Data published in patent US20240238459.

What was measured:
[1] = system: T1, ^64Cu-GRIP B
T1 sequence: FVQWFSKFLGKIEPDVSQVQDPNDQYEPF

[2] = system: T2, granzyme B-cleavable restricted interaction peptide (GRIP B), full length
T2 sequence: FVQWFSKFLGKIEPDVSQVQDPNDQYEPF

[3] = system: T3, quenched fluorogenic peptide NH2-K(MCA)IEPDVSQVK(DNP)-COOH
T3 sequence: KIEPDVSQVK

[4] = system: T4, substrate sequence FVQWFSKFLGK (SEQ ID NO:3)
T4 sequence: FVQWFSKFLGK

| Substance | proteolytic conversion on radio-HPLC [1] | proteolytic cleavage [2] | kcat/Km [3] | protease specificity (cleavage activity; enzyme 5 nM, substrate 60 µM) [4] |
| --- | --- | --- | --- | --- |
| recombinant human granzyme B | showed conversion within 30 minutes to one radiolabeled product | full length GRIP B was efficiently cleaved by recombinant human GZMB | ˜8000 M^-1 sec^-1 | the substrate sequence is highly specific for granzyme B compared to the other proteases tested |
| thrombin | – | – | – | the substrate sequence is highly specific for granzyme B compared to the other proteases tested |
| caspase 3 | – | – | – | the substrate sequence is highly specific for granzyme B compared to the other proteases tested |
| MMP9 | – | – | – | the substrate sequence is highly specific for granzyme B compared to the other proteases tested |
| caspase 8 | – | – | – | the substrate sequence is highly specific for granzyme B compared to the other proteases tested |
